The term Kd denotes a measure of binding affinity in units of concentration. Higher therefore signals lower affinity.

Experimental findings from the Immune Epitope Database (IEDB) are described below.

The target in one experiment is HLA-A*03:01. In words: IEDB peptide-MHC binding, purified MHC/direct/fluorescence; filed as Kd, often an IC50 or EC50 that approximates it; ≥ and ≤ were set here for values at or beyond the usual limits of such assays.
The next experiment addresses HLA-B*46:01. The experiment is described as above.
For a further experiment, the target named is HLA-B*44:02. Described as above.
The target in experiment [1] is HLA-B*15:01. Described as above.
Another experiment deals with HLA-A*01:01. Described as above.
Another experiment concerns the target HLA-B*48:01. The description is as above.
Another experiment deals with HLA-B*18:01. Described as above. The conditions noted are these: source organism: West Nile virus.
The target of another experiment is HLA-B*07:02. Described as above.
Experiment [2] deals with HLA-A*29:02. Described as above. The conditions noted are these: source organism: West Nile virus.
The target of another experiment is HLA-B*27:05. Described as above.
The next experiment addresses HLA-B*15:09. The experiment is described as above.
Another experiment has as its target HLA-B*40:01. The description is as above.
For the next experiment, the target named is HLA-B*58:01. The description is as above.
In experiment [3] the target is HLA-A*02:01. The experiment is described as above.
The target of experiment [4] is HLA-A*69:01. The description is as above.
In a further experiment the target is HLA-B*39:01. Described as above.
Another experiment concerns the target HLA-A*31:01. The experiment is described as above.
For another experiment, the target named is HLA-B*57:01. The experiment is described as above.
The target of another experiment is HLA-A*11:01. The experiment is described as above.
In a further experiment the target is HLA-A*26:01. Described as above.
Another experiment has as its target HLA-B*08:01. The description is as above.
A further experiment has as its target HLA-B*35:01. Described as above.
Another experiment concerns the target HLA-B*15:17. Described as above. The conditions noted are these: source organism: Vibrio vulnificus.
A further experiment concerns the target HLA-A*68:02. The description is as above. The conditions noted are these: source organism: Vibrio vulnificus.
For experiment [5], the target named is HLA-A*29:02. In words: IEDB peptide-MHC binding, purified MHC/competitive/fluorescence; filed as Kd, often an IC50 or EC50 that approximates it; ≥ and ≤ were set here for values at or beyond the usual limits of such assays. The conditions noted are these: source organism: Cryptosporidium parvum Iowa II.
A further experiment concerns the target HLA-A*24:03. In words: IEDB peptide-MHC binding, purified MHC/direct/fluorescence; filed as Kd, often an IC50 or EC50 that approximates it; ≥ and ≤ were set here for values at or beyond the usual limits of such assays. The conditions noted are these: source organism: Pasteurella multocida.
The target of experiment [6] is HLA-B*15:01. In words: IEDB peptide-MHC binding, purified MHC/competitive/fluorescence; filed as Kd, often an IC50 or EC50 that approximates it; ≥ and ≤ were set here for values at or beyond the usual limits of such assays. The conditions noted are these: source organism: Vaccinia virus Copenhagen.
In experiment [7] the target is HLA-A*02:01. The experiment is described as above. The conditions noted are these: source organism: Vaccinia virus Copenhagen.
Experiment [8] concerns the target HLA-A*69:01. The experiment is described as above. The conditions noted are these: source organism: Vaccinia virus Copenhagen.
The next experiment concerns the target HLA-C*05:01. In words: IEDB peptide-MHC binding, purified MHC/direct/fluorescence; filed as Kd, often an IC50 or EC50 that approximates it; ≥ and ≤ were set here for values at or beyond the usual limits of such assays. The conditions noted are these: source organism: Vaccinia virus Copenhagen.
Setting [9] is: source organism: West Nile virus.
The mark [10] stands for this setting: source organism: Vibrio cholerae.
Where [11] appears, read: source organism: Vibrio parahaemolyticus.
Where [12] appears, read: source organism: Vibrio vulnificus.
[13] abbreviates: source organism: Vibrio vulnificus CMCP6.
Setting [14] is: source organism: Camelpox virus M-96.
Where [15] appears, read: source organism: Pasteurella multocida.

For AHYEEDVNL, the Kd in the experiment with HLA-A*03:01 (setting [9]), with HLA-B*46:01 (setting [9]), in the experiment with HLA-B*44:02 (setting [9]), with HLA-B*15:01 [1] (setting [9]), in the experiment with HLA-A*01:01 (setting [9]) and with HLA-B*48:01 (setting [9]) was at least 20 µM each time. For the same sequence, the Kd with HLA-B*18:01 is at least 20 µM; with HLA-B*07:02 (setting [9]) it was at least 20 µM; in the experiment with HLA-A*29:02 [2], at least 20 µM; in the experiment with HLA-B*27:05 (setting [9]) it was at least 20 µM; in the experiment with HLA-B*15:09 (setting [9]), 1.8 µM; with HLA-B*40:01 (setting [9]) it was at least 20 µM. Further, the Kd is at least 20 µM in the experiment with HLA-B*58:01 (setting [9]); at least 20 µM in the experiment with HLA-A*02:01 [3] (setting [9]); at least 20 µM with HLA-A*69:01 [4] (setting [9]); 1.71 µM with HLA-B*39:01 (setting [9]); at least 20 µM with HLA-A*31:01 (setting [9]); at least 20 µM in the experiment with HLA-B*57:01 (setting [9]). This sequence also gave a Kd in the experiment with HLA-A*11:01 (setting [9]) of at least 20 µM.
On to EGIEGRIAY, for which the Kd with HLA-A*03:01 (setting [10]) was at least 20 µM; with HLA-B*44:02 (setting [10]), at least 20 µM; in the experiment with HLA-B*15:01 [1] (setting [10]) it was 0.306 µM; in the experiment with HLA-A*01:01 (setting [10]), at least 20 µM; with HLA-A*26:01 (setting [10]) it was 0.00861 µM; in the experiment with HLA-B*07:02 (setting [10]), at least 20 µM. Besides, the Kd with HLA-B*08:01 (setting [10]), with HLA-B*27:05 (setting [10]), with HLA-B*40:01 (setting [10]), with HLA-B*58:01 (setting [10]), with HLA-A*02:01 [3] (setting [10]) and with HLA-A*69:01 [4] (setting [10]) was at least 20 µM each time. In addition, the Kd with HLA-A*31:01 (setting [10]) was at least 20 µM; with HLA-B*35:01 (setting [10]) it was 0.0159 µM; with HLA-A*11:01 (setting [10]) it was at least 20 µM.
With EVDEGSDMM, the Kd with HLA-A*03:01 (setting [11]) was at least 20 µM; in the experiment with HLA-B*44:02 (setting [11]), at least 20 µM; with HLA-B*15:01 [1] (setting [11]) it was at least 20 µM; with HLA-A*01:01 (setting [11]), 4.3 µM; with HLA-A*26:01 (setting [11]) it was 4.43 µM; with HLA-B*07:02 (setting [11]), at least 20 µM. The dissociation constant (Kd) with HLA-B*08:01 (setting [11]) was at least 20 µM; in the experiment with HLA-B*27:05 (setting [11]) it was at least 20 µM; in the experiment with HLA-B*40:01 (setting [11]), at least 20 µM; in the experiment with HLA-B*58:01 (setting [11]), at least 20 µM; in the experiment with HLA-A*02:01 [3] (setting [11]) it was at least 20 µM; with HLA-A*69:01 [4] (setting [11]), 0.141 µM. The Kd was at least 20 µM with HLA-A*31:01 (setting [11]), 0.254 µM with HLA-B*35:01 (setting [11]) and at least 20 µM in the experiment with HLA-A*11:01 (setting [11]).
As to IEFIEVVRL, the Kd with HLA-B*44:02 (setting [12]), with HLA-A*01:01 (setting [12]), in the experiment with HLA-B*15:17, with HLA-B*48:01 (setting [12]), with HLA-A*26:01 (setting [13]) and with HLA-B*07:02 (setting [12]) was at least 20 µM in each case. For the same sequence, the Kd is at least 20 µM with HLA-A*68:02; at least 20 µM with HLA-B*27:05 (setting [12]); at least 20 µM with HLA-B*15:09 (setting [13]); 0.0377 µM with HLA-B*40:01 (setting [12]); at least 20 µM with HLA-B*58:01 (setting [12]); at least 20 µM with HLA-A*02:01 [3] (setting [12]). Moreover, the Kd with HLA-A*69:01 [4] (setting [12]), with HLA-B*39:01 (setting [13]), with HLA-A*31:01 (setting [12]), with HLA-B*57:01 (setting [12]) and with HLA-A*11:01 (setting [12]) was at least 20 µM throughout.
The sequence MMGIILSKY registered a Kd with HLA-A*29:02 [5] of 0.052 µM.
Take SQEDNHFSL: the Kd with HLA-A*03:01 (setting [14]) is at least 20 µM; with HLA-B*44:02 (setting [14]), at least 20 µM; in the experiment with HLA-B*15:01 [1] (source organism: Variola virus), 2.79 µM; in the experiment with HLA-A*01:01 (setting [14]), at least 20 µM; in the experiment with HLA-A*26:01 (setting [14]), at least 20 µM; with HLA-B*07:02 (setting [14]), at least 20 µM. Besides, the Kd is at least 20 µM in the experiment with HLA-B*08:01 (setting [14]); at least 20 µM in the experiment with HLA-B*27:05 (setting [14]); 0.141 µM with HLA-B*40:01 (source organism: Variola virus); at least 20 µM in the experiment with HLA-B*58:01 (setting [14]); at least 20 µM in the experiment with HLA-A*02:01 [3] (setting [14]); at least 20 µM with HLA-A*69:01 [4] (setting [14]). The figures for the Kd with HLA-A*31:01 (setting [14]), with HLA-B*35:01 (source organism: Variola virus) and with HLA-A*11:01 (setting [14]) were at least 20 µM, 1.56 µM and at least 20 µM, respectively.
As to VMLDWGIEL, the Kd in the experiment with HLA-A*03:01 (setting [15]) was at least 20 µM; in the experiment with HLA-B*15:01 [1] (setting [15]), 0.267 µM; with HLA-A*01:01 (setting [15]), at least 20 µM; with HLA-A*26:01 (setting [15]) it was at least 20 µM; in the experiment with HLA-B*07:02 (setting [15]), 11.3 µM; with HLA-B*08:01 (setting [15]), at least 20 µM. Moreover, the Kd in the experiment with HLA-A*24:03 is at least 20 µM; with HLA-B*27:05 (setting [15]), at least 20 µM; with HLA-B*40:01 (setting [15]) it was at least 20 µM; with HLA-B*58:01 (setting [15]) it was at least 20 µM; with HLA-A*02:01 [3] (setting [15]) it was 0.00619 µM; with HLA-A*69:01 [4] (setting [15]), 0.599 µM. For the same sequence, the Kd is at least 20 µM in the experiment with HLA-A*31:01 (setting [15]), 0.297 µM with HLA-B*35:01 (setting [15]) and 3.03 µM with HLA-A*11:01 (setting [15]).
YTDLTYQSF: the Kd was 2.64 µM with HLA-B*15:01 [6]; at least 20 µM with HLA-A*02:01 [7]; at least 20 µM with HLA-A*69:01 [8]; at least 20 µM with HLA-A*03:01 (source organism: Cowpox virus); at most 0.001 µM in the experiment with HLA-C*05:01; at least 20 µM in the experiment with HLA-B*46:01 (source organism: Cowpox virus). Also, the Kd in the experiment with HLA-A*01:01 (source organism: Cowpox virus) was 0.019 µM; with HLA-B*48:01 (source organism: Cowpox virus) it was at least 20 µM; with HLA-A*26:01 (source organism: Variola virus), 0.233 µM; with HLA-B*08:01 (source organism: Variola virus) it was at least 20 µM; in the experiment with HLA-B*27:05 (source organism: Cowpox virus) it was at least 20 µM; with HLA-B*15:09 (source organism: Variola virus) it was at least 20 µM. Besides, the Kd in the experiment with HLA-B*40:01 (source organism: Cowpox virus) was at least 20 µM; with HLA-B*58:01 (source organism: Variola virus), 0.083 µM; in the experiment with HLA-B*39:01 (source organism: Variola virus), at least 20 µM; with HLA-A*31:01 (source organism: Cowpox virus), at least 20 µM; with HLA-B*57:01 (source organism: Cowpox virus), 3.76 µM; in the experiment with HLA-A*11:01 (source organism: Cowpox virus), at least 20 µM.
